Assay results published in paper PMC7189753.

Biological target: ChuX
Assay: AUC

ChuX (natural protein)
percent of the sample as dimer (2.9 S species): 81.3% | percent of the sample as tetramer (4.5 S species): 10.8%
